Reference: patent publication US20130310317A1 (Bristol-Myers Squibb, published 2013)
Where two headings read alike, the source gives them in different places.

B1: 338A06 (designed binder)
chain: VSDVPRDLEVVAATPTSLLISWSARLKVARYYRITYGETGGNSPVQEFTVPKNVYTATISGLKPGVDYTITVYAVTKMRDYRPISINYRTHHHHHH
notes: Optimized derivative of 218C04; also called clone 338A06; parent clone 338A06
B2: 387B01 (designed binder)
chain: VSDVPRDLEVVAATPTSLLISWSARLKVARYYRITYGETGGNSPVQEFTVPKNVYTATISGLKPGVDYTITVYAVTSLRDYGPISINYRTHHHHHH
notes: FG loop optimized derivative of 338A06
B3: 385A08 (designed binder)
chain: VSDVPRDLEVVAATPTSLLISWSARLKVARYYRITYGETGGNSPVQEFTVPKNVYTATISGLKPGVDYTITVYAVTRFRDYQPISINYRTHHHHHH
notes: FG loop optimized derivative of 338A06; also called clone 385A08; unmodified 385A08
B4: 353H09 (designed binder)
chain: VSDVPRDLEVVAATPTSLLISWSDKLKVQRYYRITYGETGGNSPVQEFTVPKHDRTATISGLKPGVDYTITVYAVTKMRDYRPISINYRTHHHHHH
notes: Optimized derivative of 218C04
B5: 218C04 (designed binder)
chain: VSDVPRDLEVVAATPTSLLISWSPYLRVARYYRITYGETGGNSPVQEFTVPSSARTATISGLKPGVDYTITVYAVTPSNIIGRHYGPISINYRTHHHHHH
notes: also called clone 218C04; pre-optimized clone
B6: 385A08-PEG40 (designed binder)
chain: GVSDVPRDLEVVAATPTSLLISWSARLKVARYYRITYGETGGNSPVQEFTVPKNVYTATISGLKPGVDYTITVYAVTRFRDYQPISINYRTEIDKPCQ
modifications: Cys97 coupled by maleimide chemistry to a mono-functional branched 40 kDa PEG
B7: 385A08-PEG20-385A08 (designed binder)
chain: GVSDVPRDLEVVAATPTSLLISWSARLKVARYYRITYGETGGNSPVQEFTVPKNVYTATISGLKPGVDYTITVYAVTRFRDYQPISINYRTEIDKPCQ
modifications: Cys97 coupled by maleimide chemistry to a linear 20 kDa bifunctional PEG that links the two chains
notes: Two copies of 385A08 with the C-terminal Cys extension, joined through PEG; also called PEG20-385A08-PEG20 variant
B8: 353F10 (designed binder)
chain: VSDVPRDLEVVAATPTSLLISWPTHYKVARYYRITYGETGGNSPVQEFTVPKHTYTATISGLKPGVDYTITVYAVTTTKGLRHYGPISINYRTHHHHHH
notes: as for B4

Assays:
[1] = molecular target: T1, human IGF-IR on cells (human, UniProt P08069 31-1367); assay: cell-based or functional assay
[2] = molecular target: T1, human IGF-IR on cells; assay: displacement of 40 pM [125I]-IGF-I from MCF-7 cells, on ice, cell-bound CPM
Method: (§1) Cells were subsequently lysed and radioactivity was quantitated.
(§2) The human breast adenocarcinoma MCF-7 (ATCC, Manassas, Va.) was plated in 24 well plates at a concentration of 50,000 cells per well in RPMI 1640 (Invitrogen, Carlsbad, Calif.) containing 10% fetal bovine serum (Hyclone, Logan, Utah). The following day, cells were washed in binding buffer consisting of RPMI 1640 containing 0.1% BSA (Sigma, St. Louis, Mo.), and then pre-incubated for 30 minutes on ice in 200 μL binding buffer containing IGF-IR competitor. […] The wells were then washed with ice cold PBS containing 0.1% BSA. Cells were lysed with 500 μL buffer consisting of 0.1% SDS+0.5 N NaOH. Radioactivity of the lysates was measured using a Wallac 1470 Gamma Counter (Perkin Elmer, Wellesley, Mass.), and the data were analyzed using SigmaPlot (Systat Software, Point Richmond, Calif.).

[3] = molecular target: T1, human IGF-IR on cells; assay: displacement of [125I]-IGF-I from MCF-7 cells
Method: as §1, §2

[4] = molecular target: T2, recombinant human IGF-IR (human, UniProt P08069 31-932); assay: competitive ELISA: plate coated with 30 nM IGF-IR, clone bound first, then 10 nM biotinylated IGF-I as the blocked ligand, streptavidin-HRP/TMB, OD450
T2 construct: Bought (R&D Systems); also called insulin-like growth factor-I receptor; IGF-1R
Method: (§3) MaxiSorp™ plates (Nunc International, Rochester, N.Y.) were coated with 30 nM IGF-IR in PBS at 4° C. overnight followed by blocking in OptEIA buffer (BD biosciences, San Diego, Calif.) for 3 hours at room temperature. Purified fibronectin-based scaffold proteins in OptEIA buffer were bound to each well for 1 hour at room temperature at concentrations ranging from 50 pM to 1 μM. […] The excess ligand was removed by washing with PBST and bound ligand was detected with streptavidin-HRP (Pierce, Rockford, Ill.) using TMB detection reagents (BD biosciences) according to the manufacturer's instructions

[5] = molecular target: T3, recombinant human insulin receptor (human, UniProt P06213-2 28-944, limits assumed); assay: SPR (BIAcore), IR amine-coupled to chip
T3 construct: Amine-coupled to a CM5 chip (8300 RU); also called IR
Method: (§4) In brief, 60 ug/mL of IR diluted in acetate 4.5 was coupled/immobilized to a level of 8300 RU and 11.9 ug/mL of VEGF-R2-Fc diluted in acetate 5.0 was immobilized to a level of 9700 RU on flow cells 2 and 3. A blank reference surface was prepared on FC 1. […] Fibronectin-based scaffold proteins were diluted to 10 uM in HBS-EP (10 mM Hepes 150 mM NaCl 3 mM EDTA 0.05% Surfactant P20) and injected at 20 uL/min for 3 minutes over the flow cells at 25 C and dissociation was observed over 10 mins.

[6] = molecular target: T2, recombinant human IGF-IR; assay: direct binding ELISA: plate coated with 10 nM IGF-IR, His-tagged clone detected with His-HRP probe, TMB, OD450
Method: MaxiSorp™ plates (Nunc International, Rochester, N.Y.) were coated with 10 nM IGF-IR in PBS at 4° C. overnight followed by blocking in PBS-casein buffer (Pierce) for 3 hours at room temperature. Purified fibronectin-based scaffold proteins in casein buffer were bound to each well for 1 hour at room temperature at a concentration of 5 nM. The plate was washed with PBST and 100 μl of a 1:4000 dilution of His-HRP probe (Pierce) was added to each well with incubation for 15 min at room temperature. The wells were washed 5 times with PBST and the bound HRP was detected with TMB detection reagents (BD biosciences) according to the manufacturer's instructions.

[7] = molecular target: T2, recombinant human IGF-IR; assay: competitive ELISA, coated IGF-IR, biotinylated IGF-I as competitor
Method: as §3

[8] = molecular target: T3, recombinant human insulin receptor; assay: SPR (BIAcore); IR amine-coupled to chip, clone at 10 µM, signal as % of insulin signal
Method: (§5) One liter E. coli growths of selected optimized clones were prepared and the proteins were purified.
as §4

[9] = molecular target: T4, IGF-IR-Fc (human, UniProt P08069 31-932); assay: SPR (BIAcore); IGF-IR-Fc captured on Protein A, clone in solution
T4 construct: range 1-932; Made in house by transient transfection, captured on Protein A on CM5 chips for kinetic analysis; also called human IGF-IR-Fc fusion protein; recombinant, immobilized IGF-IR (BIAcore); not shown: hinge and constant regions of human IgG1
Method: One liter E. coli growths of selected optimized clones were prepared and the proteins were purified. Surface plasmon resonance (BIAcore) analysis was performed using recombinant, immobilized IGF-IR and solution-phase clones in order to determine binding kinetics and binding affinities.
(§6) The binding kinetics of fibronectin-based scaffold proteins binding proteins to the target was measured using BIAcore 2000 or 3000 biosensors (Pharmacia Biosensor). A capture assay was developed utilizing an IGF-IR-Fc fusion. A similar reagent had been described by Forbes et al. (Forbes et al. 2002, European J. Biochemistry, 269, 961-968). The extracellular domain of human IGF-IR (aa 1-932) was cloned into a mammalian expression vector containing the hinge and constant regions of human IgG1. Transient transfection of the plasmid produced a fusion protein, IGF-IR-Fc which was subsequently purified by Protein A chromatography and captured on Protein A immobilized on Biasensor CM5 chips by amine coupling. The kinetic analysis involved the capture of IGF-IR-Fc on Protein A followed by injection of the fibronectin-based scaffold protein in solution and regeneration of the Protein A surface by glycine pH 2.0. Sensorgrams were obtained at each concentration and were evaluated using a program Biaevaluation, BIA Evaluation 2.0 (BIAcore), to determine the rate constants kₐ (kₒₙ) and kd (koff) The dissociation constant, KD was calculated from the ratio of rate constants koff/kₒₙ. Typically, a concentration series (2 uM to 0 uM) of purified fibronectin-based scaffold protein was evaluated for binding to protein A captured human IGF-IR-Fc fusion protein.

[10] = molecular target: T4, IGF-IR-Fc; assay: as above; remark: listed apart in the source
Method: BIAcore analysis was performed using recombinant, immobilized IGF-IR and solution-phase clones in order to determine binding kinetics and binding affinities.
as §6

[11] = molecular target: T4, IGF-IR-Fc; assay: SPR (BIAcore); IGF-IR-Fc captured on Protein A, analyte in solution
Method: as §6

[12] = molecular target: T3, recombinant human insulin receptor; assay: SPR (BIAcore), IR amine-coupled to chip; remark: listed apart in the source
Method: as §5, §4

[13] = molecular target: T4, IGF-IR-Fc; assay: SPR (BIAcore); IGF-IR-Fc captured on Protein A, clone in solution; remark: listed apart in the source
Method: as §6

[14] = molecular target: T4, IGF-IR-Fc; assay: SPR (BIAcore); immobilized IGF-IR, analyte in solution
Method: as §6

Row | Molecule | IC50, serum mediated proliferation of NCI-H929 cells [1] [pM] | IC50 (read off the curve) [4] [nM] | binding result [5] | Kd [9] [nM] | koff [9] [s⁻¹] | kon [9] [M⁻¹ s⁻¹] | Kd [11] [nM] | koff [11] [s⁻¹] | kon [11] [M⁻¹ s⁻¹] | other results
1 | anti-IGF-IR monoclonal antibody MAB391 | 100 | – | – | – | – | – | – | – | – | IC50 (read off the curve) [2]: 2 nM; IC50 [3]: 5 nM
2 | B1 | – | ~0.7 | no binding (tested: 10 µM) | 0.069 | 0.00043 | ~6.2e+06 | – | – | – | IC50, IGF-I-dependent proliferation of BxPC-3 cells (3H-thymidine) [1]: 10 to 20 nM; IC50 (read off the curve) [2]: ~1 nM; EC50 (read off the curve) [6]: ~2 nM; IC50 [7]: ≤ 1 nM; IC50 [3]: 1 to 2 nM; % IR Binding at 10 µM [8]: 2%
3 | B2 | – | – | no binding (tested: 10 µM) | – | – | – | – | – | – | EC50 (read off the curve) [6]: ~1 nM; Kd [10]: 0.067 nM; koff [10]: 0.00044 s⁻¹; kon [10]: 6.5e+06 M⁻¹ s⁻¹
4 | B3 | ~100 | – | no binding (tested: 10 µM) | – | – | – | 0.023 | 0.00016 | 6.9e+06 | Kd [10]: 0.034 nM; koff [10]: 0.00019 s⁻¹; kon [10]: 5.7e+06 M⁻¹ s⁻¹
5 | B4 | – | ~1 | – | 0.057 | 0.00022 | 3.8e+06 | – | – | – | binding result [12]: no binding (tested: 10 µM)
6 | B5 | – | – | – | – | – | – | – | – | – | Kd [13]: 1.8 nM
7 | B6 | ~1000 | – | – | – | – | – | 0.355 | 0.00021 | 600000 | fold change of on-rate (ka) relative to unmodified 385A08 [14]: ~10 fold slower
8 | B7 | < 0.1 | – | – | – | – | – | 0.006 | 9e-05 | 1.5e+07 | fold change of on-rate (ka) relative to unmodified 385A08 [14]: ~2 fold faster
9 | B8 | – | ~1 | – | 0.056 | 0.00021 | 3.7e+06 | – | – | – | % IR Binding at 10 µM [8]: 1%
